This note sets out measurements from US20250019454A1 (BIOCYTOGEN PHARMACEUTICALS BEIJING, published 2025).

Assay [1] addresses T1, His-tagged monkey (Crab-eating monkey) TNFR2 (Sino Biological, Cat #: 90102-C08H) (monkey (Crab-eating monkey), UniProt P20333 27-257 (human entry)).
T1 construct: Bought protein; also called fTNFR2-His; not shown: His tag
T1 chain: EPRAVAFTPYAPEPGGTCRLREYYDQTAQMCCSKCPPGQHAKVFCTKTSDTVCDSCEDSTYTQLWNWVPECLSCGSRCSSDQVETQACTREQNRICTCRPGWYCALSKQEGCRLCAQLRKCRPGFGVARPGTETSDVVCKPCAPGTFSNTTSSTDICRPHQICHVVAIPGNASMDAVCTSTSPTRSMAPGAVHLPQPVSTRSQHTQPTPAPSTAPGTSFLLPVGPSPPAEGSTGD
In words: SPR Biacore 8K, antibody captured on Protein A chip, fTNFR2-His as analyte. As to the method: (§1) Purified anti-TNFR2 antibodies were diluted to 1 μg/mL and then injected into the Biacore 8K biosensor at 10 μL/min for about 50 seconds to achieve a desired protein density (e.g., about 50 response units (RU)). […] Dissociation was monitored for 600 seconds. The chip was regenerated after the last injection of each titration with Glycine (pH 2.0, 30 μL/min for 30 seconds).
Similar to the aforementioned binding affinity experiment, the binding affinities of the anti-TNFR2 antibodies BC-1B6-IgG1, BC-1C3-IgG1 and BC-1F4-IgG1 to His-tagged monkey (Crab-eating monkey) TNFR2 (fTNFR2-His, Sino Biological, Cat #: 90102-C08H) were measured.

Assay [2] has as its target T2, His-tagged human TNFR1 (Human TNFR1/CD120a/TNFRSF1A Protein, His Tag, Acrobiosystems Cat #: TN1-5222) (human, UniProt P19438 30-211).
T2 construct: Bought protein; also called hTNFR1-His; hTNFR 1-His; not shown: His tag
T2 sequence (looked up): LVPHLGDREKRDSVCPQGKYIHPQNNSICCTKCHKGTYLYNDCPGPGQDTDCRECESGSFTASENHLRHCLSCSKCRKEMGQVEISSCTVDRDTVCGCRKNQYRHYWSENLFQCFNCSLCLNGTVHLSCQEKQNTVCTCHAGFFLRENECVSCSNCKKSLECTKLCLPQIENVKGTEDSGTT
In words: SPR Biacore 8K, antibody captured on Protein A chip. The method, then:
(§2) The binding affinity of the anti-TNFR2 antibodies to human TNFR2 and TNFR1 (Tumor necrosis factor receptor 1) were measured using surface plasmon resonance (SPR) using Biacore (Biacore, INC, Piscataway NJ) 8K biosensor equipped with pre-immobilized Protein A sensor chips.
as §1
In general terms: Surface plasmon resonance follows binding to a sensor surface in real time, without labels.

Assay [3] has as its target T3, His-tagged human TNFR2 (Human TNFR2/CD120b/TNFRSF1B Protein, His Tag, Acrobiosystems Cat #: TN2-5227) (human, UniProt P20333 23-257).
T3 construct: Bought protein; also called hTNFR2-His; Recombinant human TNFR2 proteins with His-tag; not shown: His tag
T3 sequence: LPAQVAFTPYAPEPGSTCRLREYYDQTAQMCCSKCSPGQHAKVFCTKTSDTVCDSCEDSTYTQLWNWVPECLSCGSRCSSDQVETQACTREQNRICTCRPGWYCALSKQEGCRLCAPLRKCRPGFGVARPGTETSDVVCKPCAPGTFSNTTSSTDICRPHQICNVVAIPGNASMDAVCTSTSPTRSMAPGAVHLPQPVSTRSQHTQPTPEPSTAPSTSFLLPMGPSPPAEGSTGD
In words: SPR Biacore 8K, antibody captured on Protein A chip, hTNFR2-His as analyte, 1:1 model. As to the method:
as §2, §1

For assay [4], the target named is T4, ΔCRD4-TNFR2 protein (with CRD4 deletion), on CHO-S cells (human, UniProt P20333 23-461).
T4 construct: also called CHO-SΔCRD4-TNFR2; TNFR2 lacking CRD4
T4 sequence: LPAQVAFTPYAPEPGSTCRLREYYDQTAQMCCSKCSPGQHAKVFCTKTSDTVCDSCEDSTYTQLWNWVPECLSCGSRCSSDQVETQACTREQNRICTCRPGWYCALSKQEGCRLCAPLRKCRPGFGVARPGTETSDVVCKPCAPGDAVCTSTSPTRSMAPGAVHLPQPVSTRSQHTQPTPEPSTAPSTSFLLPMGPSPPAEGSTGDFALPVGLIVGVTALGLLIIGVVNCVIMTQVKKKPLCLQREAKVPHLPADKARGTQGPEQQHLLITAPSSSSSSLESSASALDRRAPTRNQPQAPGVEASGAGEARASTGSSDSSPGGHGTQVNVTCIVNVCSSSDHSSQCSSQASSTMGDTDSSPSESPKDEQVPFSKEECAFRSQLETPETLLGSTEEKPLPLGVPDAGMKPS
Put plainly: FACS on CHO-S cells with ΔCRD4-TNFR2, AF647 anti-human IgG Fc secondary. From the text: (§3) TNFR2 has four cysteine rich domains (CRD). In another experiment, FACS was used to detect the binding of anti-hTNFR2 antibodies to TNFR2 proteins with different structural domains. Secondary antibody (Alexa Fluor® 647 AffiniPure F(ab′) 2 Fragment Goat Anti-Human IgG, Fcγ fragment specific, Jackson ImmunoResearch Laboratories, Inc., Cat #: 151524) was used. The fluorescence-labeled secondary antibody can attach to the Fc region of the anti-hTNFR2 antibodies so that the anti-hTNFR2 antibodies that are bound to the ΔCRD cells can be detected by FACS. Specifically, ΔCRD1-TNFR2 protein (with CRD1 deleteion), ΔCRD2-TNFR2 protein (with CRD2 deleteion), ΔCRD3-TNFR2 protein (with CRD3 deleteion) or ΔCRD4-TNFR2 protein (with CRD4 deleteion) were expressed in CHO-S cells respectively, and then the binding between the cells and different anti-hTNFR2 antibodies was detected.

Assay [5] deals with T5, ΔCRD2-TNFR2 protein (with CRD2 deletion), on CHO-S cells (human, UniProt P20333 23-461).
T5 construct: also called CHO-SΔCRD2-TNFR2
T5 sequence: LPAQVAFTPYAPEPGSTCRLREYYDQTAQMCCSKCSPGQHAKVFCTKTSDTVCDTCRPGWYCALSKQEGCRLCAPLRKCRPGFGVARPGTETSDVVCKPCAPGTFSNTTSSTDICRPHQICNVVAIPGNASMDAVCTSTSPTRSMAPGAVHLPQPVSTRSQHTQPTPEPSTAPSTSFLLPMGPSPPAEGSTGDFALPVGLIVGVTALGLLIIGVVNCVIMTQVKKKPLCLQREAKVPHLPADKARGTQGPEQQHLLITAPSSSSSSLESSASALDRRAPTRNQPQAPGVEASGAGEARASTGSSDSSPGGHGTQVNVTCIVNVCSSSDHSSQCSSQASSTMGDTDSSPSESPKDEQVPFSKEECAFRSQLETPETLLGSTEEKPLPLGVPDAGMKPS
In words: FACS on CHO-S cells with ΔCRD2-TNFR2, AF647 anti-human IgG Fc secondary.
Source text: as §3

B1: BC-1B6-IgG1 (antibody, V domains shown)
VH: QVQLVESGGGVVQPGRSLRLSCAASGFTFSNFGMHWVRQAPGKGLEWVAVIWYEGSDKYYADSVKGRFTISRDNSKNTLYLQMNSLRAEDTAVYYCARDSSWGFLLYGMDVWGQGTTVTVSS
VL: DVVMTQSPLSLPVTLGQPASISCRSSRSLEYSDGNTYLNWFQQRPGQSPRRLIYKVSNRDSGVPDRFSGSGSGTAFTLKISGVEAEDVGVYYCMQGTHWPPTFGGGTKVEIK
notes: Human VH/VL joined to the human IgG1 subtype
One may read the Kd as the constant that tells how readily two partners part at equilibrium. The term koff denotes a measure of how fast the partners let go of each other. For orientation: kon means the rate constant with which the complex forms. On to B1, for which, in assay [1], binding was characterised by a dissociation constant (Kd) of 17.5 nM, the koff came out at 0.00547 s⁻¹ and the kon was determined as 313000 M⁻¹ s⁻¹. In addition, the binding result in assay [2] was “no binding (tested: up to 200 nM analyte)”. Also, in assay [3], binding was put at a Kd of 3.89 nM, the off-rate (koff) amounted to 0.00644 s⁻¹ and the kon came out at 1.66e+06 M⁻¹ s⁻¹.

B2: BC-1A8-IgG1 (antibody, V domains shown)
VH: QVQLQQSGPGLVKPSQTLSLTCAISGDSVSSNSAAWNWIRQSPSRGLEWLGRTYYRSKWYNDYALSVKSRITINPETSKNQFSLQLNSVTPEDTAVYYCAREDGVGGTKDYFDYWGQGTLVTVSS
VL: DIQMTQSPSSLSASVGDRVTITCQASQDIDNYLNWYQQKPGKAPKLLIYDVSNLEIGVPSRFSGSGSGTDFTFTISSLQPEDIATYYCQQYDNLPLTFGQGTRLEIK
notes: Fully human VH/VL joined to the human IgG1 subtype, kappa light chain (RenMab mice)
Consider B2, for which the “positive rate of binding (% of cells)” value in assay [4] is 29.4%. Besides, the “positive rate of binding (% of cells)” value in assay [5] stood at 71.2%. For the same molecule, the binding result in assay [2] was “no binding (tested: up to 200 nM analyte)”. Further, in assay [3], binding was put at a Kd of 1.36 nM, the koff was found to be 0.00126 s⁻¹ and the association rate constant (kon) turned out to be 924000 M⁻¹ s⁻¹.

B3: BC-1F4-IgG1 (antibody, V domains shown)
VH: QVQLQQSGPGLVKPSQTLSLTCAISGDSVSSDSSAWNWIRQSPSRGLEWLGRTYYRSKWYNDYTVSVKSRITINPDTSKNQFSLQLNSVTPEDTAVYYCAREDGVGGTKDYFDYWGQGTLVTVSS
VL: DIQMTQSPSSLSASVGDRVTITCQASQDISNYLNWYQQKPGKAPKLLIYDASNLETGVPSRFSGSGSGTDFTFTINSLQPEDFATYFCQQYDNLPITFGQGTRLEIK
notes: as for B1
Regarding B3, the results for the “positive rate of binding (% of cells)” value in assay [4] and in assay [5] were 21.3% and 59.1%, respectively. The figures for the Kd in assay [1] and in assay [3] were 20.1 nM and 2.21 nM, respectively. The off-rate constant (koff) in assay [1] turned out to be 0.0109 s⁻¹; in assay [3] it was 0.00159 s⁻¹. The kon in assay [1] turned out to be 541000 M⁻¹ s⁻¹; in assay [3] it was 718000 M⁻¹ s⁻¹. Moreover, the binding result in assay [2] is recorded as “no binding (tested: up to 200 nM analyte)”.

B4: BC-1F10-IgG1 (antibody, V domains shown)
VH: QVQLQQWGAGLLKPSETLSLICAVYDGSFSGDYWSWIRQPPGKGLEWIGEINHSGSTNYNPSLKSRVTISVDTSKNQFSLKLSSVTAADTAVYYCARGHWNYDYYYGMDVWGQGTTVTVSS
VL: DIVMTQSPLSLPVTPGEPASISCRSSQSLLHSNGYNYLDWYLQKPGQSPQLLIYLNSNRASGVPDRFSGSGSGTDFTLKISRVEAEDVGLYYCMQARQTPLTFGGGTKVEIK
notes: as for B1
Take B4: in assay [4], the “positive rate of binding (% of cells)” value stood at 38.3%. Moreover, the “positive rate of binding (% of cells)” value in assay [5] amounted to 65.7%. Besides, the binding result in assay [2] is “no binding (tested: up to 200 nM analyte)”. In assay [3], this molecule showed a dissociation constant (Kd) of 5.1 nM, a dissociation rate constant (koff) of 0.000467 s⁻¹ and a kon of 91500 M⁻¹ s⁻¹.

B5: BC-1C3-IgG1 (antibody, V domains shown)
VH: QVQLVESGGGVVHPGKSLRLSCAASGFTFNIYGMHWVRQAPGKGLEWVALISYDGNDKYFADSVKGRFTISRDNSKNTLYLQMNSLRAEDTAVYYCAKAVDTAVVTFFDYWGQGTLVTVSS
VL: EIVMTQSPVTLSVSPGERATLSCRASQSVSSNLAWYQQKPGQAPRLLIYSASTRATGIPARFSGSGSGTEFTLTISSLQSEDLAVYYCQQYSNWPFTFGPGTKVDIK
notes: as for B1
Consider B5, for which the “positive rate of binding (% of cells)” value is 1.85% in assay [4] and 80.3% in assay [5]. Besides, the Kd was determined as 118 nM in assay [1] and 9.5 nM in assay [3]. In addition, the koff came out at 0.0221 s⁻¹ in assay [1] and 0.00115 s⁻¹ in assay [3]. In addition, the kon in assay [1] stood at 187000 M⁻¹ s⁻¹; in assay [3] it was 121000 M⁻¹ s⁻¹. Besides, the binding result in assay [2] was “no binding (tested: up to 200 nM analyte)”.
